*1 amine or outer side, *2 acyl side, *3 side chain or, on linkers, in order; H or OH if unused. Where no end group is shown, it is not given here. [ ]: non-standard residue; d: D form. The star is where a group is joined. azaArg = aza-arginine, alpha-carbon replaced by nitrogen, N=C(N)NCCCN(N[*:1])C(=O)[*:2]; Phe(4-Br) = N[C@@H](Cc1ccc(Br)cc1)C(=O)O; azaLeu = CC(C)CN(N[*:1])C(=O)[*:2]; Palmitoyl = CCCCCCCCCCCCCCCC(=O)*; αMeR = C[C@](N)(CCCNC(=N)N)C(=O)O; NMeL = CN[C@@H](CC(C)C)C(=O)O; αMeL = CC(C)C[C@](C)(N)C(=O)O; Nle = CCCC[C@H](N)C(=O)O; Aib = CC(C)(N)C(=O)O
T1: recombinant human APJ receptor (Chem-5-APJ cells) (human, UniProt P35414 1-380)
T1 sequence (looked up): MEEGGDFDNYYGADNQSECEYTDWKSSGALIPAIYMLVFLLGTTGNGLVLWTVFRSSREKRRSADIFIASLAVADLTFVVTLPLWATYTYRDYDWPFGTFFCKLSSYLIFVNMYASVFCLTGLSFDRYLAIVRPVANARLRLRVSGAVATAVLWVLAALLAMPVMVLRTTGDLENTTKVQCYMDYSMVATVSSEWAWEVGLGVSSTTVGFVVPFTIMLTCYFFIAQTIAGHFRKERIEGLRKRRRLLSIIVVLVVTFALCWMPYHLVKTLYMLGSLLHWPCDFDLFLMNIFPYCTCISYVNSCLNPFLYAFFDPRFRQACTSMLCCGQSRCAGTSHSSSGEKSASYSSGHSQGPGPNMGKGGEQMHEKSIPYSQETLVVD

T2: wild-type rat apelin receptor tagged at its C-terminus with EGFP (rat, UniProt Q9JHG3 1-377)
T2 construct: whole, on cells; Used as crude membrane preparations from CHO cells stably expressing the receptor; also called wild-type rat apelin receptor-EGFP; not shown: EGFP tag at the C-terminus
T2 sequence (looked up): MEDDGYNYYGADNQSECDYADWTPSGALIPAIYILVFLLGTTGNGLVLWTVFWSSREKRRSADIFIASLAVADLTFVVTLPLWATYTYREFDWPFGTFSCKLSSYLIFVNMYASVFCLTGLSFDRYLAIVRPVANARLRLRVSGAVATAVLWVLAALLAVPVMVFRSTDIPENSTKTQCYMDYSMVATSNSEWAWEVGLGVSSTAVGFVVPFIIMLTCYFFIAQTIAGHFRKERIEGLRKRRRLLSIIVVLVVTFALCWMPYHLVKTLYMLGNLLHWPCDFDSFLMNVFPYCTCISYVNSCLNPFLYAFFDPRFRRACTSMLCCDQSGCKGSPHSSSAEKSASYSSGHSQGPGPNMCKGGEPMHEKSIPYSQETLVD


How the values were obtained:
[1] = molecular target: T1, recombinant human APJ receptor …; experiment: cell-based or functional assay
[2] = molecular target: T1, recombinant human APJ receptor …; experiment: cell-based or functional assay; remark: listed apart in the source
[3] = molecular target: T2, wild-type rat apelin receptor tagged at …; experiment: displacement of 0.2 nM [125I]-pyr-1-apelin-13; membranes of CHO cells expressing rat apelin receptor-EGFP
Experimental: This experiment evaluated the ability of peptides of the present embodiments to bind to the wild-type rat apelin receptor, in order to examine the impact of synthetic modification within the critical RPRL motif of the apelin peptides.
The reaction was stopped by adding 4 mL of cold binding buffer, filtered on Whatman GF/C filters and washed with 5 mL of cold binding buffer. Radioactivity was then counted using a Wizard 1470 Wallac gamma counter (Perkin Elmer, Turku, Finland). Binding experiment data were analyzed with GraphPad Prism.

Binder | EC50 (nM), Ca2+ mobilization assay [1] | Ki [3] | times less potent than native 2 [3] | further results
RQRPR[NMeL]SHKGP[Nle][Aib][Phe(4-Br)] [Apelin-NMe14A2 (55)] | 176 nM | – | – | EC50 of Ca2+ mobilization, fold against the 17-mers [2]: ~200 fold
KFRRQRP[αMeR]LSHKGP[Nle][Aib][Phe(4-Br)] (also called α-MeArc8-apelin-17 A2) [α-MeArg8-apelin-17 A2 (13)] | – | 0.13 nM | ~3 fold | –
KFRRQRPR[NMeL]SHKGP[Nle][Aib][Phe(4-Br)] (also called Apelin-NMe17A2; NMeLeu-17A2) [N-MeLeu9-apelin-17 A2 (11)] | – | 0.45 nM | ~3 fold | –
Palmitoyl-KFRRQRPRLSHKGP[Nle][Aib][Phe(4-Br)] [PALM-17A2 (56)] | 2.6 nM | – | – | –
Palmitoyl-KFRRQRPR[NMeL]SHKGP[Nle][Aib][Phe(4-Br)] [PALM-NMe17A2 (58)] | 11.3 nM | – | – | –
KFRRQRPRLSHKGPMPF (Native isoform; apelin residues 61-77; also called native apelin-17; native isoform 2) [apelin-17 (2)] | – | 0.053 nM | – | –
RQRPRLSHKGP[Nle][Aib][Phe(4-Br)] [Apelin-14A2 (54)] | 568 nM | – | – | EC50 of Ca2+ mobilization, fold against the 17-mers [2]: ~200 fold
KFRRQRPR[azaLeu]SHKGP[Nle][Aib][Phe(4-Br)] [azaLeu9 apelin-17 A2 peptide (19)] | – | 0.15 nM | ~3 fold | –
KFRRQRPR[NMeL]SHKGP[Nle][Aib][Phe(4-Br)] (not fully specified (N-terminus); numbers in words are those of the source; also: N-terminal PEG from Fmoc-(PEG)6 propionic acid, Fmoc removal not given here) [PEG-NMe17A2 (59)] | 2.5 nM | – | – | –
KFRRQRPRLSHKGP[Nle][Aib][Phe(4-Br)] (Synthetic ACE2-resistant analogue; also called parent peptide 5) [apelin-17 A2 (5)] | 4 nM | 0.19 nM | – | –
XRPRLSHKGPXXX (pGlu at 1; Nle at 11; Aib at 12; paraBrPhe at 13, Synthetic ACE2-resistant analogue; also called parent peptide 4; none (A2)) [pyr-1-apelin-13 A2 (4)] | – | 2 nM | – | factor of weaker affinity compared to 1 [3]: 6 fold
KFRRQRP[azaArg]LSHKGP[Nle][Aib][Phe(4-Br)] [azaArg8-apelin-17 A2 (17)] | – | 0.14 nM | ~3 fold | –
KFRRQRPRLSHKGP[Nle][Aib][Phe(4-Br)] (not fully specified (N-terminus); also: Fmoc removal from PEG not given here) [PEG-17A2 (57)] | 6.3 nM | – | – | –
KFRRQRPR[αMeL]SHKGP[Nle][Aib][Phe(4-Br)] [α-MeLeu9-apelin-17 A2 (15)] | – | 0.18 nM | ~3 fold | –
KFRRQRPR[dL]SHKGP[Nle][Aib][Phe(4-Br)] [D-Leu9-apelin-17 A2 (9)] | – | 0.14 nM | ~3 fold | –

From patent US20200239537A1 (GOVERNORS OF THE UNIVERSITY OF ALBERTA, published 2020)
